From the supplement of paper PMC10567573 come the findings set out here.

B1: KRT18 (parent)
chain: RAQYDELARKNREELDKYWSQQIE
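Note: lentivirally expressed fusions sorted by FACS into six bins by GFP to DsRed ratio, PSI derived from sequencing read proportions per bin multiplied by bin number.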

Variants of B1 are the subject of the series. Kind of series: protein stability index of a GFP-peptide fusion (GPS, HEK-293T) (PSI 1-6); higher = more stable. Conditions: c terminus: a fixed tail appended.
RAQYFELARKNREELDKYWSQQIE [D5F]: the protein stability index amounted to 2.83.
Regarding RAQYTELARKNREELDKYWSQQIE [D5T], the protein stability index worked out at 3.57.
In the case of RAQYCELARKNREELDKYWSQQIE [D5C] it was 3.33.
For the variant RAQYLELARKNREELDKYWSQQIE [D5L], the protein stability index was 2.33.
Consider RAQYVELARKNREELDKYWSQQIE [D5V], for which the protein stability index worked out at 3.57.
Regarding RAQYSELARKNREELDKYWSQQIE [D5S], the protein stability index amounted to 2.79.
In the case of RAQYDELARKNRFELDKYWSQQIE [E13F] it was 3.1.
In the case of RAQYDELARKNRKELDKYWSQQIE [E13K] it was 3.2; in that of RAQYDELARKNRYELDKYWSQQIE [E13Y], 3.05.
As for RAQYDELARKNRDELDKYWSQQIE [E13D], the protein stability index is 3.54.
Regarding RAQYDELARKNRTELDKYWSQQIE [E13T], the protein stability index came to 3.82.
In the case of RAQYDELARKNRRELDKYWSQQIE [E13R] it was 3.31; in that of RAQYDELARKNREELDKYWSQQIA [E24A], 2.48; in that of RAQYDELARKNREELDKYWSQQIW [E24W], 2.5.
Under RAQYDELARKNREELDKYWSQQIN [E24N] stands 3.13; under RAQYDELARKNREELDKYWSQQIY [E24Y], 2.73; under RAQYDELARKNREELDKYWSQQID [E24D], 3.8.
Under RAQYDELARKNREELDKYWSQQIQ [E24Q] stands 2.94; under RAQYDELARKNREELDKYWSQQIK [E24K], 3.34.
As to RAQYDELARKNREELDKYWSQQIM [E24M], the protein stability index was found to be 2.31.
In the case of RAQYDELARKNREELDKTWSQQIE [Y18T], the protein stability index turned out to be 4.57.
RAQYDELARKNREELDKGWSQQIE [Y18G]: the protein stability index was 4.27.
As to RAQYDELARKNREELDKAWSQQIE [Y18A], the protein stability index was found to be 4.62.
Consider RAQYDELARKNREELDKWWSQQIE [Y18W], for which the protein stability index turned out to be 3.62.
With RAQYDELPRKNREELDKYWSQQIE [A8P], the protein stability index came out at 4.42.
As for RAQYDELRRKNREELDKYWSQQIE [A8R], the protein stability index worked out at 3.51.
Take RAQYDELNRKNREELDKYWSQQIE [A8N]: the protein stability index came to 3.54.
Regarding RAQYDELCRKNREELDKYWSQQIE [A8C], the protein stability index worked out at 2.75.
In the case of RAQYDELARKNREELDKYWSQQKE [I23K] it was 5.03; in that of RAQYDELARKNREELDKYWSQQFE [I23F], 2.23.
With RAQYDELARKNREELDKYWSQQQE [I23Q], the protein stability index was found to be 4.43.
On to RAQYDELARKNREELDKYWSQQME [I23M], for which the protein stability index was 2.28.
In the case of RAQYDELARKNREELDKYWSQQWE [I23W] it was 3.97; in that of RAQYDELARKNREELDKYWSQQHE [I23H], 2.23; in that of RAQYDELARKNREELDKYWSQQVE [I23V], 4.14.
On to RAFYDELARKNREELDKYWSQQIE [Q3F], for which the protein stability index is 2.38.
RAMYDELARKNREELDKYWSQQIE [Q3M]: the protein stability index is 2.52.
With RALYDELARKNREELDKYWSQQIE [Q3L], the protein stability index is 2.55.
As to RATYDELARKNREELDKYWSQQIE [Q3T], the protein stability index came out at 2.89.
Under RAHYDELARKNREELDKYWSQQIE [Q3H] stands 2.54; under RANYDELARKNREELDKYWSQQIE [Q3N], 4.45; under RAKYDELARKNREELDKYWSQQIE [Q3K], 3.19.
Consider RARYDELARKNREELDKYWSQQIE [Q3R], for which the protein stability index was determined as 3.27.
With RAYYDELARKNREELDKYWSQQIE [Q3Y], the protein stability index was found to be 2.56.
RAGYDELARKNREELDKYWSQQIE [Q3G]: the protein stability index worked out at 3.21.
Turning to RAVYDELARKNREELDKYWSQQIE [Q3V], the protein stability index was 2.31.
Take HAQYDELARKNREELDKYWSQQIE [R1H]: the protein stability index came out at 2.97.
In the case of QAQYDELARKNREELDKYWSQQIE [R1Q], the protein stability index is 3.07.
In the case of EAQYDELARKNREELDKYWSQQIE [R1E] it was 3.06.
For the variant VAQYDELARKNREELDKYWSQQIE [R1V], the protein stability index is 3.71.
Consider AAQYDELARKNREELDKYWSQQIE [R1A], for which the protein stability index is 3.38.
In the case of YAQYDELARKNREELDKYWSQQIE [R1Y] it was 2.29; in that of GAQYDELARKNREELDKYWSQQIE [R1G], 3.12; in that of DAQYDELARKNREELDKYWSQQIE [R1D], 2.87.
Take SAQYDELARKNREELDKYWSQQIE [R1S]: the protein stability index worked out at 3.06.
Regarding RAQYDELARKNREELDKYWAQQIE [S20A], the protein stability index stood at 3.15.
For RAQYDELARKNREELDKYWLQQIE [S20L], the protein stability index worked out at 2.33.
Under RAQYDELARKNREELDKYWEQQIE [S20E] stands 4.23; under RAQYDELARKNREELDKYWYQQIE [S20Y], 2.79.
For the variant RAQYDELARKNREELDKYWGQQIE [S20G], the protein stability index turned out to be 3.97.
For RAQYDELARKNREELDKYWRQQIE [S20R], the protein stability index turned out to be 2.17.
As for RAQYDELARKNREELDKYWVQQIE [S20V], the protein stability index was determined as 3.18.
On to RAQYDELARKNREELDKYWNQQIE [S20N], for which the protein stability index amounted to 2.79.
As to RAQYDELARKNREELDKYWHQQIE [S20H], the protein stability index is 1.59.
Consider RAQYDELARVNREELDKYWSQQIE [K10V], for which the protein stability index came out at 3.15.
On to RAQYDELARSNREELDKYWSQQIE [K10S], for which the protein stability index was 3.23.
Consider RAQYDELARENREELDKYWSQQIE [K10E], for which the protein stability index is 3.33.
In the case of RAQYDELARPNREELDKYWSQQIE [K10P] it was 3.83; in that of RAQYDELARINREELDKYWSQQIE [K10I], 2.79.
Regarding RAQYDELARRNREELDKYWSQQIE [K10R], the protein stability index amounted to 3.03.
In the case of RAQYDELARLNREELDKYWSQQIE [K10L], the protein stability index was 3.73.
In the case of RAQYDELARDNREELDKYWSQQIE [K10D], the protein stability index amounted to 4.73.
In the case of RAQYDELARKNREELDKYWSQYIE [Q22Y] it was 3.44; in that of RAQYDELARKNREELDKYWSQTIE [Q22T], 3.99.
Regarding RAQYDELARKNREELDKYWSQEIE [Q22E], the protein stability index was 3.7.
As for RAQYDELARKNREELDKYWSQRIE [Q22R], the protein stability index was determined as 3.78.
RAQYDELARKNREELDKYWSQLIE [Q22L]: the protein stability index is 3.15.
In the case of RAQYDELARKNREELDKYWSQDIE [Q22D] it was 4.67.
On to RAQYDELARKNREELDKYWSAQIE [Q21A], for which the protein stability index worked out at 3.05.
On to RAQYDELARKNREELDKYWSFQIE [Q21F], for which the protein stability index worked out at 3.62.
With RAQYDELARKNREEFDKYWSQQIE [L15F], the protein stability index was found to be 3.22.
In the case of RAQYDELARKNREEYDKYWSQQIE [L15Y] it was 3.3; in that of RAQYDELARKNREEIDKYWSQQIE [L15I], 3.94.
Turning to RAQYDELARKNREEMDKYWSQQIE [L15M], the protein stability index was 4.06.
Consider RAQYDELARKNREEGDKYWSQQIE [L15G], for which the protein stability index stood at 4.07.
On to RAQYDELARKNREEVDKYWSQQIE [L15V], for which the protein stability index was 3.41.
For RAQYDELARKNREERDKYWSQQIE [L15R], the protein stability index stood at 4.22.
Consider RAQYDEDARKNREELDKYWSQQIE [L7D], for which the protein stability index turned out to be 3.
In the case of RAQYDEVARKNREELDKYWSQQIE [L7V], the protein stability index came to 3.41.
Consider RAQYDEWARKNREELDKYWSQQIE [L7W], for which the protein stability index turned out to be 2.13.
In the case of RAQYDEYARKNREELDKYWSQQIE [L7Y] it was 3.06; in that of RAQYDESARKNREELDKYWSQQIE [L7S], 3.84; in that of RAQYDEHARKNREELDKYWSQQIE [L7H], 3.62.
With RAQYDEIARKNREELDKYWSQQIE [L7I], the protein stability index amounted to 3.41.
